Biological target: MBP-Rubicon RH (Rubicon Homology domain of Rubicon, wild type) (UniProt Q92622)
Assay: ITC; MBP-Rubicon RH (80 µM) in the chamber, RAB7A (800 µM) in the syringe; 13 injections at 25°C; 50 mM HEPES 7.5, 150 mM NaCl, 2 mM MgCl2, 10 mM TCEP; simple single-binding-site fit

Chain of UniProt Q92622 (Q92622 699-949): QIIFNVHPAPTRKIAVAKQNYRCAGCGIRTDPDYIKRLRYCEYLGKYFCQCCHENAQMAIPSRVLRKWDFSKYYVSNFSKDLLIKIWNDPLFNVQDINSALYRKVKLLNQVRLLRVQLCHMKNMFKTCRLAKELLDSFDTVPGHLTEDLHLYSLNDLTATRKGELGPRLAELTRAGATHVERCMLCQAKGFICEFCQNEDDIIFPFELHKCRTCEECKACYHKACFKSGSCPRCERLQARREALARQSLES

For “RAB7A (recombinantly purified, unlabelled, as used for ITC) (from UniProt P51149 2-182) (natural protein)”, the Kd was 1700 nM and the stoichiometry N was 0.7.

— PMC11090050
